Experimental data published in paper PMC7272460, “Structural and functional evidence of bacterial antiphage protection by Thoeris defense system via NAD^+ degradation” (Nature Communications, 2020).
Positions count from the first letter of the chain named. Numbers in names are those of the source. Where “and” joins values, the source holds several entries; their conditions need not be identical. Equal values may be shown once.

Key:
[1] = test system: NC(=O)c1ccc[n+]([C@@H]2O[C@H](COP(=O)(O)OP(=O)(O)OC[C@H]3O[C@@H](n4cnc5c(N)ncnc54)[C@H](O)[C@@H]3O)[C@@H](O)[C@H]2O)c1; assay: purified protein; assay type: biochemical, Bacillus cereus; conditions: 2.0 μM ThsA, 63 mM NaCl, 14 mM Tris-HCl pH 7.5, 25 °C
[2] = molecular target: the molecule itself; assay: SEC-MALS; Superdex 200 Increase 10/300 GL, 200 mM NaCl, 2 mM DTT, 20 mM HEPES pH 7.5, 25 °C; ThsA loaded at 11 mg/mL, ThsB at 24 mg/mL (~1 mM)
[3] = molecular target: the molecule itself; assay: SEC; analytical SEC of single ThsA proteins (wild type, N112A, H152A) to compare the oligomeric state; Superdex 200 10/300 GL, 150 mM NaCl, 1 mM DTT, 20 mM HEPES pH 7.5
[4] = molecular target: the molecule itself; assay: crystal structure; ThsA crystals, sitting drop, 20 °C, 22% polypropylene glycol 400, 0.2 M MgCl2, 0.1 M MES pH 6.5; 2.5 Å; four protomers in the asymmetric unit

## ThsA (Bacillus cereus MSX-D12)
[1]
  Km: 270 µM
  kcat: 0.565 s⁻¹

B1: ThsA of the Bacillus cereus MSX-D12 Thoeris defense system, wild type (enzyme)
chain: MNPIVELFIKDFTKEVMEENAAIFAGAGLSMSVGYVSWAKLLEPIAQEIGLDVNKENDLVSLAQYYCNENQGNRGRINQIILDEFSRKVDLTENHKILARLPIHTYWTTNYDRLIEKALEEENKIADVKYTVKQLATTKVKRDAVVYKMHGDVEHPSEAVLIKDDYEKYSIKMDPYIKALSGDLVSKTFLFVGFSFTDPNLDYILSRVRSAYERDQRRHYCLIKKEERRPDELEADFEYRVRKQELFISDLSRFNIKTIVLNNYNEITEILQRIENNIKTKTVFLSGSAVEYNHWETEHAEQFIHQLSKELIRKDFNIVSGFGLGVGSFVINGVLEELYMNQGTIDDDRLILRPFPQGKKGEEQWDKYRRDMITRTGVSIFLYGNKIDKGQVVKAKGVQSEFNISFEQNNYVVPVGATGYIAKDLWNKVNEEFETYYPGADARMKKLFGELNNEALSIEELINTIIEFVEILSN
notes: ThsA, Bacillus cereus MSX-D12, synthetic thsA gene in pET28a; the structure has an N-terminal sirtuin-like domain (residues 1-283) and a C-terminal SLOG-like domain (residues 284-476); The synthetic thsA gene was cloned; Predominantly a tetramer by SEC-MALS, with a trace of octamer; also called B. cereus ThsA; wild-type ThsA; source: E. coli BL21(DE3), purified (HisTrap, TEV cleavage, second …)
[2]
  stoichiometry N: 4 and 8

B2: ThsA N112A mutant (enzyme)
chain: B1 chain with N110A
notes: ThsA, Bacillus cereus MSX-D12, synthetic thsA gene in pET28a, point mutant made by PCR with mismatched primers; source: E. coli BL21(DE3), purified; not shown: His6, N-terminal, cleaved; MBP, N-terminal, cleaved
[3]
  binding result: binds

B3: selenomethionyl ThsA of Bacillus cereus MSX-D12 (crystallised) (enzyme)
chain: B1 chain
modifications: selenomethionine at seven of eight possible Met sites
notes: ThsA, Bacillus cereus MSX-D12, synthetic thsA gene in pET28a; N-terminal sirtuin-like domain (residues 1-283) and C-terminal SLOG-like domain (residues 284-476) in the structure; Four protomers (chains A-D) in the asymmetric unit; The methods describe only selenomethionyl protein before the crystallisation; that the deposited structure is of this form is inferred; also called selenomethionyl …
[4]
  binding result: binds
